In patent US20130130988A1:
Several values for one entry are separate records, joined by “and”; a condition that tells them apart may be missing. Equal values may be shown once.

Assays:
galectin-1 = assay: microplate binding assay, complex adsorbed in wells, biotin-streptavidin visualisation; conditions: scale: µg of macromolecular complex per 10 ng of galectin-1
TLR-6 = assay: as above

| Substance | concentration at saturation (galectin-1) | concentration at saturation (µg of macromolecule per 10 ng of TLR6) (TLR-6) |
| --- | --- | --- |
| macromolecular complex of Bifidobacterium longum CBi0703 (CNCM I-3994), prepared according to example 2 (fermentation with pH not regulated) | 10 and 20 | 10 and 20 |
| macromolecular complex of Bifidobacterium longum CBi0703 (CNCM I-3994), prepared according to example 1 (fermentation with pH regulated) | 20 and 10 | 10 and 20 |
